The results in this text go back to paper PMC3159028 (Journal of molecular biology, 2011).

Where two headings read alike, the source gives them in different places.

Data set [1] deals with the molecule itself. As to the kind of experiment: SEC. Background: In gel filtration, larger molecules generally elute earlier.
Data set [2] deals with the molecule itself. As to the kind of experiment: SEC. This is another data set of the same source.

B1: human NudC-like protein (NudCL), full length (natural protein, UniProt Q8IVD9 1-361, looked up)
chain: METGAAELYDQALLGILQHVGNVQDFLRVLFGFLYRKTDFYRLLRHPSDRMGFPPGAAQALVLQVFKTFDHMARQDDEKRRQELEEKIRRKEEEEAKTVSAAAAEKEPVPVPVQEIEIDSTTELDGHQEVEKVQPPGPVKEMAHGSQEAEAPGAVAGAAEVPREPPILPRIQEQFQKNPDSYNGAVRENYTWSQDYTDLEVRVPVPKHVVKGKQVSVALSSSSIRVAMLEENGERVLMEGKLTHKINTESSLWSLEPGKCVLVNLSKVGEYWWNAILEGEEPIDIDKINKERSMATVDEEEQAVLDRLTFDYHQKLQGKPQSHELKVHEMLKKGWDAEGSPFRGQRFDPAMFNISPGAVQF
Usually stoichiometry N stands for a count of units in the complex or per binding partner. As to B1, the “stoichiometry N” value in the data set “SEC [1]” was determined as 2.

B2: mouse NudC-like 2 protein (NudCL2), full length (natural protein, UniProt Q9CQ48 1-157, looked up)
chain: MSAPFEERSGVVPCGTPWGQWYQTLEEVFIEVQVPPGTRAQDIQCGLQSRHVALAVGGREILKGKLFDSTIADEGTWTLEDRKMVRIVLTKTKRDAANCWTSLLESEYAADPWVQDQMQRKLTLERFQKENPGFDFSGAEISGNYTKGGPDFSNLEK
Consider B2, for which the “stoichiometry N” value in “SEC [1]” was found to be 2.

B3: human NudC, full length (NudC^1–331) (natural protein)
chain: not shown
Regarding B3, in “SEC [1]”, the “stoichiometry N” value turned out to be 2.

B4: hNudC^1–141, N-terminal fragment of human NudC (dimerization domain) (domain or fragment)
chain: not shown
As to B4, the “stoichiometry N” value in the data set “SEC [2]” was 2.
